Results reported in US20160304580A1 (ALLIGATOR BIOSCIENCE, published 2016).
Positions count from the first letter of the chain named.

How the values were obtained:
[1] = biological target: T1, human CTLA4-Fc (Fitzgerald #30R-CD152) (human, UniProt P16410 38-152, biotinylated in the inhibition ELISAs (sites not given)); assay: SPR (Biacore); ratio [Kd for CD28] / [Kd for CTLA-4] compared with wild type
T1 construct: Bought reagent; Used plain (coated or immobilised) and biotinylated (in solution); also called biotinylated-CTLA4; human CTLA-4 (Fitzgerald); not shown: Fc of the bought fusion protein
T1 sequence: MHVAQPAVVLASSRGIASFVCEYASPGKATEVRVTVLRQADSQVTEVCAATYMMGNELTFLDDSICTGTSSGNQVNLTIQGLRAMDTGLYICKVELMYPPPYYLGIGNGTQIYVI
Method: (§1) The phage clones selected from Example 1 were re-cloned according to standard protocols into a fusion protein-format, with each clone fused to γ2/γ4 Fc. The fusion proteins were expressed in HEK293 cells. Supernatants culure of the cells were collected and the expressed fusion proteins were assayed using both ELISA and Biacore™ according to the methods set out below.
Either CTLA4-Fc (Fitzgerald #30R-CD152) or CD28-Fc (R&D systems 342-CD) was immobilized to the Biacore™ senshorship, CM5, using conventional amine coupling. The CD86 mutant molecules and controls (serially diluted ½ 100-1.5 nM) were analyzed for binding in HBs-P (GE, BR-1003-69) at a flow rate […]. The association was followed for 3 minutes and the dissociation for 10 minutes. Regeneration was performed twice using 5 mM NaOH for 30 seconds. The kinetic parameters and the affinity constants were calculated using BIAevaluation 4.1 software.

[2] = biological target: T1, human CTLA4-Fc (Fitzgerald #30R-CD152); assay: ELISA; ratio [EC50 for CD28] / [EC50 for CTLA-4] compared with wild type
Method: as §1
(§2) 96-well flat bottom high binding plates (Greiner #655074) were coated with either CTLA4-Fc (Fitzgerald #30R-CD152) or CD28-Fc (R&D systems 342-CD) by incubating overnight at 4° C. The plates were washed (Wash buffer: PBS+0.05% Tween 20 (PBST) Medicago #09-9410-100) and then blocked in PBST+3% BSA (Merck, #1.12018.0100). The plates were washed again and sample or controls (serially diluted ⅕ from 200-0.001 μg/ml) were added to the wells. The samples were incubated for 1 h at room temperature and then washed. Detection antibody, goat-anti-human IgG Fcγ-HRP (Jackson, #109-035-098) was added and the plates were subsequently developed using SuperSignal Pico Chemiluminescent substrate (Thermo #37069) and detected with an Envision reader (Perkin Elmer). EC50 values were calculated for both CTLA4 and CD28. The binding ratio (EC50 binding ratio=[EC50 for CD28]÷[EC50 for CTLA-4]) was calculated for each polypeptide and is shown in Table 4.

[3] = biological target: T1, human CTLA4-Fc (Fitzgerald #30R-CD152); assay: binding ELISA on coated CTLA4-Fc; against wild type and H79A; upper end tied to 1040 by Table 7
Method: as §2, with “Similar to the protocol described in Example 2, 96-well” for “96-well”, “(kindly provided by Simon Davis, Oxford University)” for “(R&D systems 342-CD)”, “⅓” for “⅕”, “50 000-0001 nM)” for “200-0.001 μg/ml)”, “Elmer).” for “Elmer). EC50 values were calculated for both CTLA4 and CD28. The binding ratio (EC50 binding ratio=[EC50 for CD28]÷[EC50 for CTLA-4]) was calculated for each polypeptide and is shown in Table 4.”
(§3) Binding to CD28 was too low for detection by this assay (data not shown).

[4] = biological target: T1, human CTLA4-Fc (Fitzgerald #30R-CD152); assay: binding ELISA: CTLA4-Fc coated on the plate, sample serially diluted, detection with goat anti-human IgG Fcγ-HRP, chemiluminescence, data normalised to %
Method: as §2, with “Similar to the protocol described in Example 2, 96-well” for “96-well”, “(kindly provided by Simon Davis, Oxford University)” for “(R&D systems 342-CD)”, “⅓” for “⅕”, “50 000-0001 nM)” for “200-0.001 μg/ml)”, “Elmer).” for “Elmer). EC50 values were calculated for both CTLA4 and CD28. The binding ratio (EC50 binding ratio=[EC50 for CD28]÷[EC50 for CTLA-4]) was calculated for each polypeptide and is shown in Table 4.”
as §3

[5] = biological target: T1, human CTLA4-Fc (Fitzgerald #30R-CD152); assay: binding ELISA on coated CTLA4-Fc; against wild type and H79A; lower end tied to 1042 by Table 7
Method: as §2, with “Similar to the protocol described in Example 2, 96-well” for “96-well”, “(kindly provided by Simon Davis, Oxford University)” for “(R&D systems 342-CD)”, “⅓” for “⅕”, “50 000-0001 nM)” for “200-0.001 μg/ml)”, “Elmer).” for “Elmer). EC50 values were calculated for both CTLA4 and CD28. The binding ratio (EC50 binding ratio=[EC50 for CD28]÷[EC50 for CTLA-4]) was calculated for each polypeptide and is shown in Table 4.”
as §3

B1: CD86 mutant clone 904 fused to γ2/γ4 Fc (Fc fusion)
chain: LKIQAYFNETADLPCQFANSQNQSLSELIVFWQDQENLVLNEVYLGKERFDAVDSKYMGRTSFDSDSWTLRLHNLQIKDKGIYQCIIHHKKPSGMVKIHQMDSELSVLA
notes: not shown: γ2/γ4 Fc
- fold of Kd binding ratio over wild type CD86 [1]: > 4 times

B2: CD86 mutant clone 907 fused to γ2/γ4 Fc (Fc fusion)
chain: B1 chain with I29V, R49K, A52S, D54H, I82L, S93T, V96I, Q100E, D102N
notes: not shown: γ2/γ4 Fc
- fold of EC50 binding ratio over wild-type CD86 [2]: ~10 times

B3: CD86 mutant clone 1040 expressed as a gamma2/gamma4 fusion (Fc fusion)
chain: APLKIQAYFNETADLPCQFANSQNLSLSELVVFWQDQENLVLNEVYLGKERFDSVDSKYMGRTSFDSDSWTLRLHNLQIKDKGRYQCIIHHKKPTGMINIHQMNSELSVLA
notes: Purified on protein A; not shown: gamma2/gamma4 Fc
- fold improvement of EC50 [3]: 2 to 67 fold
- EC50 (read off the curve) [4]: ~8 ng/mL

B4: CD86 mutant clone 1042 expressed as a gamma2/gamma4 fusion (Fc fusion)
chain: B3 chain with R51I, D56S, R84I, T95S, I98V, N99K, N104D
notes: as for B3
- fold improvement of EC50 [5]: 2 to 67 fold
